Source: patent publication US20250109201A1

Legend:
[1] = molecular target: recombinant human LILRA1/LIR-6 (Sino Biological 17220-H08H-100) (human) (UniProt O75019); assay: SPR, LILRA and LILRB family panel
[2] = molecular target: ECD-His tagged human ILT2 haplotype PE01 (human) (UniProt Q8NHL6); assay: SPR, LILRA and LILRB family panel
[3] = molecular target: recombinant human LILRA3/ILT6 (Sino Biological 13549-H08H-100) (human) (UniProt Q8N6C8); assay: SPR, LILRA and LILRB family panel
[4] = molecular target: human ILT2 extracellular and transmembrane domains expressed on CHO cells (human) (UniProt Q8NHL6); assay: flow cytometry, blocking of HLA-G-Fc-PE on CHO cells with high human ILT2
[5] = molecular target: full-length ILT2 expressed on Jurkat cells (human) (UniProt Q8NHL6); assay: cell-based or functional assay
[6] = molecular target: complement component C1q (Sigma/C1740-1 mg) (human) (UniProt P02745); assay: ELISA, antibody coated, C1q in solution, OD 450 nm
[7] = molecular target: complement component C1q (Sigma/C1740-1 mg) (human) (UniProt P02745); assay: ELISA, antibody coated in a dilution series, C1q added at 2 µg/mL, biotinylated anti-C1q and streptavidin-HRP
[8] = molecular target: human ILT2 extracellular and transmembrane domains expressed on CHO cells (human) (UniProt Q8NHL6); assay: flow cytometry, CHO cells with low human ILT2
[9] = molecular target: human ILT2 extracellular and transmembrane domains expressed on CHO cells (human) (UniProt Q8NHL6); assay: flow cytometry, CHO cells with high human ILT2

ECD-His tagged human ILT2 haplotype PE01 (human), sequence (Q8NHL6 24-458): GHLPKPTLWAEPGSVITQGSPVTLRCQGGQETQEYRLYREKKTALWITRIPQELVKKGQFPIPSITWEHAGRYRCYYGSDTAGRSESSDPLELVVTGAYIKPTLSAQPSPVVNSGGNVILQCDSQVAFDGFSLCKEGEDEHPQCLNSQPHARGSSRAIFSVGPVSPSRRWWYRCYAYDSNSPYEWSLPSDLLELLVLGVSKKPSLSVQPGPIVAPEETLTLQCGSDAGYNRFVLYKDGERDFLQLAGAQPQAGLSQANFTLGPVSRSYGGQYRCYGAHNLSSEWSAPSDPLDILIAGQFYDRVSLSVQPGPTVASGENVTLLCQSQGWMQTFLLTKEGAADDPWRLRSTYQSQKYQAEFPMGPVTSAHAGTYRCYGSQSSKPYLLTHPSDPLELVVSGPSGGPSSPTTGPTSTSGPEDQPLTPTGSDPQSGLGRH
recombinant human LILRA3/ILT6 (Sino Biological 13549-H08H-100) (human), sequence (Q8N6C8 24-439 limits assumed): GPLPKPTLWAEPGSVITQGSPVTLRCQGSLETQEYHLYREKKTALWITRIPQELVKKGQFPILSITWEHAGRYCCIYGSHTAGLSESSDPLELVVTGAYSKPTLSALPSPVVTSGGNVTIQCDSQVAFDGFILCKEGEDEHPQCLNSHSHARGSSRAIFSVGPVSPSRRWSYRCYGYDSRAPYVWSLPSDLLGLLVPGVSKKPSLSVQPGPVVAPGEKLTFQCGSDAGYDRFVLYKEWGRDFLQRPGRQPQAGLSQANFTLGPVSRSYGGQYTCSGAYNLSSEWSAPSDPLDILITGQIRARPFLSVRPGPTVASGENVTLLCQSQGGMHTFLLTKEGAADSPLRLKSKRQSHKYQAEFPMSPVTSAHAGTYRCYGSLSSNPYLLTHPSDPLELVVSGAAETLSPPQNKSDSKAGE
recombinant human LILRA1/LIR-6 (Sino Biological 17220-H08H-100) (human), sequence (O75019 17-461 limits assumed): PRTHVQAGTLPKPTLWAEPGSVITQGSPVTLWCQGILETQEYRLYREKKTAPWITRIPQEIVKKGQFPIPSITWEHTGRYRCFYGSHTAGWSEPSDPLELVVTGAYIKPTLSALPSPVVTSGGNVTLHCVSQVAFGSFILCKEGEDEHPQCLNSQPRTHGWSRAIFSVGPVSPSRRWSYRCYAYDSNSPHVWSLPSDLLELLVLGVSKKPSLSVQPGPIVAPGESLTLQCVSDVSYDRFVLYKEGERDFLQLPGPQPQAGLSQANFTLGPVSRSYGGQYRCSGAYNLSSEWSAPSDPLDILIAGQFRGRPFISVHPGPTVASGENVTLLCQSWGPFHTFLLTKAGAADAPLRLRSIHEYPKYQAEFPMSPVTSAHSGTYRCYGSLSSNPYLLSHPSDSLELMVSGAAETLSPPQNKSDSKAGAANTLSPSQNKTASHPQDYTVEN
complement component C1q (Sigma/C1740-1 mg) (human), sequence (P02745 23-245 limits assumed, chain 1 of 3): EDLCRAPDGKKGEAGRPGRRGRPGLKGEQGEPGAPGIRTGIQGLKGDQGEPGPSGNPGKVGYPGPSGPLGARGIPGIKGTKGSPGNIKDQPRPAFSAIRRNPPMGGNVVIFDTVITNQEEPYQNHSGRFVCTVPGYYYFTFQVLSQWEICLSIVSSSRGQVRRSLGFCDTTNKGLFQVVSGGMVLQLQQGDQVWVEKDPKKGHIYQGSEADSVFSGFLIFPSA
complement component C1q (Sigma/C1740-1 mg) (human), sequence (P02746 28-253 limits assumed, chain 2 of 3, further chain): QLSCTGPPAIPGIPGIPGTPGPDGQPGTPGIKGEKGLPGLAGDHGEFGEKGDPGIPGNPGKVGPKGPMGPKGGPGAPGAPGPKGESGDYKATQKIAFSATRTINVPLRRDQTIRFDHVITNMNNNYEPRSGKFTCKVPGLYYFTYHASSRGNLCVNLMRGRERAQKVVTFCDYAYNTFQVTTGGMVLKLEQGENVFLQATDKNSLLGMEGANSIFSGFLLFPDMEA
complement component C1q (Sigma/C1740-1 mg) (human), sequence (P02747 29-245 limits assumed, chain 3 of 3, further chain): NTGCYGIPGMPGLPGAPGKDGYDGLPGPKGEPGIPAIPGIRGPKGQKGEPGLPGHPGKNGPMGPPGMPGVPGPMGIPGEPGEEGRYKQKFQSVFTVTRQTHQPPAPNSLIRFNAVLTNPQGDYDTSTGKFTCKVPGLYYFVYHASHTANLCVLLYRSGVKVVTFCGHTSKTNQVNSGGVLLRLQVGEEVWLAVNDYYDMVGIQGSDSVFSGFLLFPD
human ILT2 extracellular and transmembrane domains expressed on CHO cells (human), sequence (Q8NHL6 24-482 limits assumed): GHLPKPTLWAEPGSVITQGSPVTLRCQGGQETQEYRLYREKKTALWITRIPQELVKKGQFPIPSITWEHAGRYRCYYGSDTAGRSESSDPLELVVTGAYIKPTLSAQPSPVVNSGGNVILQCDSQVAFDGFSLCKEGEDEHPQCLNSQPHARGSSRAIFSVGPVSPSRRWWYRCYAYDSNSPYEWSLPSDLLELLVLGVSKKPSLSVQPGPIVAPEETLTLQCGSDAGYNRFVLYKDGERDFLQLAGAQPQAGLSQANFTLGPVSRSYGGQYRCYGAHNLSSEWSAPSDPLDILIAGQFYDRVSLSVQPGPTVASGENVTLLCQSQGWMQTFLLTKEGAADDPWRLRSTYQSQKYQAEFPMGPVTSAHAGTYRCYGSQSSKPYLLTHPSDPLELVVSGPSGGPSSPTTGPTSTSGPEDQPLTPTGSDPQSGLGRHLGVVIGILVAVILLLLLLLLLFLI
full-length ILT2 expressed on Jurkat cells (human), sequence (Q8NHL6 24-650): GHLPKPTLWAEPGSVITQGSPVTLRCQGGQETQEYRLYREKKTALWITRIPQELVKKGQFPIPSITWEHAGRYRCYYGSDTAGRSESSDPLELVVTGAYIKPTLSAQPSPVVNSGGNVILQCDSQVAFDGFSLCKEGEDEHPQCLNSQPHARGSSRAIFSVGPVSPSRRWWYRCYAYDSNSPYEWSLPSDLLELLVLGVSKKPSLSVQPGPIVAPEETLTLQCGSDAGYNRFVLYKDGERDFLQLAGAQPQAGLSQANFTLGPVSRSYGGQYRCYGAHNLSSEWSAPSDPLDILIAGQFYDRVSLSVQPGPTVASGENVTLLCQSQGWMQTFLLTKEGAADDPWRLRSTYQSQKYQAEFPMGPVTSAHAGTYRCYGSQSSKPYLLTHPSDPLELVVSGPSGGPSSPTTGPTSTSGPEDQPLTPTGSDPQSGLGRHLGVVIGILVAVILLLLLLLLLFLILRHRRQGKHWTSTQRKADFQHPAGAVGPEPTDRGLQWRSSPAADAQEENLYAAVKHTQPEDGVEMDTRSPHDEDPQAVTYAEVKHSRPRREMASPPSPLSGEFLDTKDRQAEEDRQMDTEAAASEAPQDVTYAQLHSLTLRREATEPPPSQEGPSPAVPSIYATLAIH

Substance | Kd [1] [nM] | Kd [2] [nM] | Kd [3] [nM] | other results
4F9 (Biorad, #MCA2515F) (antibody) | 40 | 0.89 | 26 | –
238145 (Abcam, #EPR22861-6) (antibody) | 0.81 | 0.24 | < 0.1 | –
292305 (R&D Systems, #MAB20171) (antibody) | 260 | 2.4 | 100 | –
IgG4 isotype control (CrownBio/C00045-5) (antibody) | – | – | – | Average AUC [6]: 0.5
VMP55 (Novus, #NBP2-50475PE) (antibody) | 32 | 0.15 | 6 | –
adalimumab (Myonex), an anti-TNFα IgG1 antibody | – | – | – | EC50 (read off the curve) [7]: 3 µg/mL
isotype control (VRC01 IgG4) (antibody) | – | – | – | AUC [8]: 542; AUC [9]: 570
nivolumab (Evidentric GmbH), an anti-PD-1 IgG4 antibody | – | – | – | Average AUC [6]: 0.52

Continued, in another order:

Kd [1] [nM] | Kd [2] [nM] | Kd [3] [nM] | Substance | other results
5 | 1.7 | 13 | 1Q-G2 (Creative, #DCABH-4494) (antibody) | –
7.2 | 3.6 | 15 | HP-F1 (Invitrogen, #16-5129-82) (antibody) | IC50 [4]: 0.307 µg/mL; FcγRIIIa-NFAT luciferase signaling, Average AUC normalized to HP-F1 [5]: 100; FcγRIIIa-NFAT luciferase signaling, EC50 [5]: 32.8 µg/mL
